These results are taken from article PMC3536784 (PLoS ONE, 2013).

Sequences and labels used below:
B1: biphenyl dioxygenase (BPDO_(B356)) β-subunit from Pandoraea pnomenusa B-356 (enzyme, UniProt Q46373 1-186, looked up)
chain: MISTPLSKEFEWPAKPVSLELQHQVEQFYYREAQLLDHHAFQAWFALLAEDIHYWMPIRTVRTAREQGLEYVPAGANAHFDDTHATMYGRIRQKTSDLNWAEDPPSRTRHLVSNVIVREMDTPGTLEVASAFLLYRSRLERQVDVFAGERRDVLRIADNPLGFQIAKRTIILDQSTVLANNLSVFF
notes: the final models include the complete β-subunit; Co-produced and co-purified with the α-subunit as the (αβ)3 oxygenase; three copies in the hexamer; also called β of BphAE; BPDO β; source: heterologously produced and purified anaerobically as described previously [17]
B2: biphenyl dioxygenase (BPDO_(B356)) α-subunit from Pandoraea pnomenusa B-356 (enzyme)
chain: MSSTMKDTQEAPVRWSRNWTPDAIRALVDQDNGKLDARIYADQDLYQLELERVFGRSWLMLGHETHIPKIGDYLTTYMGEDPVIMVRQKDQSIKVFLNQCRHRGMRIVRSDGGNAKAFTCTYHGWAYDIAGNLVNVPFEKEAFCDKKEGDCGFDKADWGPLQARVETYKGLVFANWDPEAPDLKTYLSDAMPYMDVMLDRTEAGTEAIGGIQKWVIPCNWKFAAEQFCSDMYHAGTMSHLSGVLAGLPPEMDLTQIQLSKNGNQFRSAWGGHGAGWFINDSSILLSVVGPKITQYWTQGPAAEKAARRVPQLPILDMFGQHMTVFPTCSFLPGINTIRTWHPRGPNEVEVWAFVLVDADAPEDIKEEFRLQNIRTFNAGGVFEQDDGENWVEIQRVMRGHKAKSTSLCAKMGLNVPNKNNPAYPGKTAYVYAEEAARGMYHHWSRMMSEPSWDTLKP
notes: Co-produced and co-purified with the β-subunit as the (αβ)3 oxygenase; three copies in the hexamer; Holds a Rieske Fe2S2 cluster and a mononuclear Fe(II); also called α of BphAE; source: heterologously produced and purified anaerobically as described previously [17]

Data set [1] concerns the molecule itself. In words: crystal structure; crystals grown anaerobically by sitting drop vapor diffusion (citrate pH 5.8 or MES pH 6.0), space group R3, one αβ protomer in the asymmetric unit; three αβ protomers about the crystallographic three-fold axis form the (αβ)3 hexamer; without and with biphenyl.
Data set [2] concerns the target B2. The data set is described as above. As to conditions: both partners purified.

As for B1, the binding result in data set [1] and in data set [2] was “binds” each time.

As to B2, the binding result in data set [1] was “binds”.
